Literature values as cited in patent US6872537B1, “Assays for the detection of microtubule depolymerization inhibitors” (Regents of the University of California, priority 1998, dated 2005).

Conditions: literature values for comparison

In the case of “p97: AAA ATPase cited for comparison [reference compound]”, the “ATPase activity of other AAA family members” value is listed as 1 ATP/sec.
